This data set addresses Optineurin (OPTN) (Homo sapiens, UniProt Q96CV9 1-577). Description: tryptophan fluorescence quenching titration.

Where “and” joins values, the source holds several entries; their conditions need not be identical. Equal entries are not always repeated.

Sequence of Optineurin (OPTN) (Q96CV9 whole entry): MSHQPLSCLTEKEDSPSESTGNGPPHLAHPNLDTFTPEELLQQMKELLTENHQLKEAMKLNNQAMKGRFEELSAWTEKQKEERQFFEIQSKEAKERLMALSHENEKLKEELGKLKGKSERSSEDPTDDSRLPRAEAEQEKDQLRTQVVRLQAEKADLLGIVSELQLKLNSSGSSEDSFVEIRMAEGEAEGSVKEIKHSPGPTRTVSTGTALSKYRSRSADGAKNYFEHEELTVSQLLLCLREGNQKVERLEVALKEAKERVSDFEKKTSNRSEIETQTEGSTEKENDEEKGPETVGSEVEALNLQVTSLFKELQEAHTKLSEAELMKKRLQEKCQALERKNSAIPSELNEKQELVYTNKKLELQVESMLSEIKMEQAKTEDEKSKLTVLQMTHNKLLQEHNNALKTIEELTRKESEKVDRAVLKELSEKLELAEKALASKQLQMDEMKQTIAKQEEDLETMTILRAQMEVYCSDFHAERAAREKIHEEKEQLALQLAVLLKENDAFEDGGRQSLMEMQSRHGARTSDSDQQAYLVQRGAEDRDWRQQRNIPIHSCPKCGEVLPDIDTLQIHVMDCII

As to UGUGUGUGUGUGUGUGUGUGUGUG (ssRNA) [UG-repeat RNA 24-mer], the dissociation constant Kd – broadly, the constant that tells how readily two partners part at equilibrium – is 4.61 µM and 4.49 µM.
